{"source": "paper doi:10.1101/2025.08.01.667725", "about": "(bioRxiv, 2025)", "binders": {"B1": {"name": "SMARCD2 SWIFT domain, purified from E. coli (domain or fragment, human)", "chain": "LTQKRKLRIYISNTFSPSKAEGDSAGTAGTPGGTPAGDKVASWELRVEGKLLDDPSKQKRKFSSFFKSLVIELDKELYGPDNHLVEWHRMPTTQETDGFQVKRPGDLNVKCTLLLMLDHQPPQYQHPDPIVINHVISVDPNDQKKTACYDIDVEVD", "notes": "SMARCD2, human, stretch of the SWIFT domain before the SWIB domain; the text gives aa185–312; also called SMARCD2 YEATS-like SWIFT domain; source: E. coli (pGOOD), purified"}}, "biological_target": "T1, FLAG-tagged full-length PU.1, purified (human, UniProt P17947 1-270)", "T1 construct": "PU.1 transcription factor, full length; also called FLAG-PU.1; purified PU.1; source: 293-ExpiF (Expi293TF) cells, transfected with pCAG, purified (FLAG M2 beads, anion exchange, size exclusion)", "experiment": "MST; SMARCD2 SWIFT domain and PU.1; Kd model fit", "details": "both partners purified"}
{"binder": "B1", "values": [{"measurement": "Kd", "result": 3.6, "unit": "µM"}]}
